Source: article PMC5560758, “SCF^AtPP2-B11 modulates ABA signaling by facilitating SnRK2.3 degradation in Arabidopsis thaliana” (PLoS Genetics, 2017)

Biological target: T1, MBP-SnRK2.3 (Arabidopsis thaliana, UniProt Q39193 1-361)
T1 construct: SnRK2.3 (SnRK2I) of Arabidopsis thaliana; ORF cloned into pMAL-c2x; pMAL-c2x places MBP at the N-terminus (surmised from the vector); also called SnRK2.3-MBP; source: E. coli BL21, purified (Amylose Resin)
T1 sequence (looked up): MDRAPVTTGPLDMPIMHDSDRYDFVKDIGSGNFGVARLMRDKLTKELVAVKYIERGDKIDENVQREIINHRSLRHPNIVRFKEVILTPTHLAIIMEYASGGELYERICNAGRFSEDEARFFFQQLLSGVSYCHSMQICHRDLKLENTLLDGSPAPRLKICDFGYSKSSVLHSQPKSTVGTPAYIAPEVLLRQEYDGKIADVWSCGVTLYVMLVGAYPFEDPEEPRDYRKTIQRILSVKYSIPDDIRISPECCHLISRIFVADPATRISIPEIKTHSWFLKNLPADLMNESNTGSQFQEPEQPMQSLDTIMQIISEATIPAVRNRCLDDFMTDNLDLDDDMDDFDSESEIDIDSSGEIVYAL
Experiment: pull-down; AtPP2-B11-GST held on GST beads, incubated with MBP-SnRK2s 2 h at room temperature or 4°C overnight; washed four times; anti-MBP blot
Settings: both partners purified

- binding result: binds
B1: GST-AtPP2-B11 (natural protein, Arabidopsis thaliana, UniProt Q949S5 1-257, looked up)
chain: MNNLPEDCIAKILSLTTPLDVCRLSAVSSIFRSAAGSDDVWNHFLPADFPAGFAAPAGLPTRKQLFFSLVDNPLLINGTLLSFSLERKSGNKCYMMAARALNIVWGHEQRYWHWISLPNTRFGEVAELIMVWWLEITGKINITLLSDDTLYAAYFVFKWNHSPYGFRQPVETSLVLADTESTDNVVQPSMISLMQDSGGEEGQSPVLRRDGWYEVELGQFFKRRGDLGEIEMSLKETKGPYEKKGLIVYGIEIRPVP
notes: AtPP2-B11, F-box protein of Arabidopsis thaliana, 257 amino acids; ORF cloned into pGEX-4T-1; pGEX-4T-1 places GST at the N-terminus (surmised from the vector); also called AtPP2-B11-GST; source: E. coli BL21, purified (Glutathione Agarose)
